Laboratory results reported in patent CN112125972A (SINOCELLTECH LTD, dated 2020).

What was measured:
Assay in all cases: indirect ELISA, VLP coated at 2 μg/mL
HPV52 VLP = molecular target: T1, HPV52 VLP (Human papillomavirus type 52, UniProt Q05138 27-529)
T1 construct: also called HPV52完整VLP蛋白
T1 sequence: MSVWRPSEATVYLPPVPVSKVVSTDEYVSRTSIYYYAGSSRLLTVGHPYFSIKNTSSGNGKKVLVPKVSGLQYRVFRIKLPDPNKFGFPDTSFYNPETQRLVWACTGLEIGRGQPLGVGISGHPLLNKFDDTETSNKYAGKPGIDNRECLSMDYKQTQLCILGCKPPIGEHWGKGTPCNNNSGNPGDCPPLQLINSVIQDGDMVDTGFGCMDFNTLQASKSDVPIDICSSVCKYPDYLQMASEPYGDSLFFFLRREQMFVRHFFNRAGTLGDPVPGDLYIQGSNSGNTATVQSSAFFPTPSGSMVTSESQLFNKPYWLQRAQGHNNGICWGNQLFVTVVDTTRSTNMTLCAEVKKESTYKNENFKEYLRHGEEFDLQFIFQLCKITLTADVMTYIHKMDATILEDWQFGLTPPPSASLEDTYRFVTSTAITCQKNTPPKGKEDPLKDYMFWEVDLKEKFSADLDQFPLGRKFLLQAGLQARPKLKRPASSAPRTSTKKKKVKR

HPV56 VLP = molecular target: T2, HPV56 VLP (Human papillomavirus type 56, UniProt P36743 36-534)
T2 construct: also called HPV56完整VLP蛋白
T2 sequence: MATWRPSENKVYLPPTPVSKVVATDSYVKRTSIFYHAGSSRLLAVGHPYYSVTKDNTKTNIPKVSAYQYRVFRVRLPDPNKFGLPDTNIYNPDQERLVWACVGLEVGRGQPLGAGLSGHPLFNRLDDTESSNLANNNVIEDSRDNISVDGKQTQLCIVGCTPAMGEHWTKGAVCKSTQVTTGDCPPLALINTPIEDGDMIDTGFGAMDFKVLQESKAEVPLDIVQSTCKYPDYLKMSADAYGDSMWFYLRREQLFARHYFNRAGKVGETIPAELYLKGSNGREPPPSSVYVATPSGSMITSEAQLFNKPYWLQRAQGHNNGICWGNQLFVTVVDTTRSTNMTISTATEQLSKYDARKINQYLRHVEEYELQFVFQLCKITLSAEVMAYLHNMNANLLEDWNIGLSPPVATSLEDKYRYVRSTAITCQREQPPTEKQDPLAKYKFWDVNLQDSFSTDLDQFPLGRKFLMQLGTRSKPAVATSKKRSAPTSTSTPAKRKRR

HPV58 VLP = molecular target: T3, HPV58 VLP (Human papillomavirus type 58, UniProt P26535 27-524)
T3 construct: also called HPV58完整VLP蛋白
T3 sequence: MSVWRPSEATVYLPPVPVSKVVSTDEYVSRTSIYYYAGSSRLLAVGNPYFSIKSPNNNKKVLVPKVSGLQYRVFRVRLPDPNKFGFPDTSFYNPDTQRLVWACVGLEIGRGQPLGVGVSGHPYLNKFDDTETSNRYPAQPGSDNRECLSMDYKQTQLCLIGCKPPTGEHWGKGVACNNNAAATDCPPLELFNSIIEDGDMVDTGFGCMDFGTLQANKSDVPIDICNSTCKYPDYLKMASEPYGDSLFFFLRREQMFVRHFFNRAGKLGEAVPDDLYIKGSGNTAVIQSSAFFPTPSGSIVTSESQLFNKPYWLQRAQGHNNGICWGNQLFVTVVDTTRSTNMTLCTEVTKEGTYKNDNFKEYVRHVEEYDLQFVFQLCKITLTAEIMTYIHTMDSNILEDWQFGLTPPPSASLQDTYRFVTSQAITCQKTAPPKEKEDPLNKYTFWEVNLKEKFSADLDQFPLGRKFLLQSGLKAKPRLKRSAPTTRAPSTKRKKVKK

HPV6 VLP = molecular target: T4, HPV6 VLP (Human papillomavirus type 6, UniProt P69899 1-500)
T4 construct: also called HPV6完整VLP蛋白
T4 sequence: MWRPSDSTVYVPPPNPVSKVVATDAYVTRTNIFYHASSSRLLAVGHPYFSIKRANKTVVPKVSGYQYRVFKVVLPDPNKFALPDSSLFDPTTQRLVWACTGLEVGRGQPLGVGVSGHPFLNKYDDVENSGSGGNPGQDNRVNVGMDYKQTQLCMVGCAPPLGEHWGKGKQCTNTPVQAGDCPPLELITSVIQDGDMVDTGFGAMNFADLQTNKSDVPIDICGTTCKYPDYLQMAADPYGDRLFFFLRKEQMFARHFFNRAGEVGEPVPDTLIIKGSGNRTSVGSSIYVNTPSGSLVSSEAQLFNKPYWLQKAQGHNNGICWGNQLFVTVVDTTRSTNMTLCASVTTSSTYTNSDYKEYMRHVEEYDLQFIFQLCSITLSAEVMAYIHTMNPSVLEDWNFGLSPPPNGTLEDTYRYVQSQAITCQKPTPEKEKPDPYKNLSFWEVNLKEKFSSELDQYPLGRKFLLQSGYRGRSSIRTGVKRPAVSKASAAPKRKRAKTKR

Measured: binding result

B1: HPV 16 R001 (antibody, V domains shown)
VH: QSVKESEGRLVTPGTPLTLTCTASGFTMSRYHMTWVRQAPGKGLEWIGIIYARNSDTYYANWAKGRFTISKTSTTVDLKITSPTIEDTATYFCARVDSDSSGAFDRLDLWGQGTLVTVSS
VL: DPMLTQTAASVEVAVGGTVTIKCQASQSIGGYLSWYQQKPGQRPKLLIYRASTLASGVPSRFKGSGSGTEYTLTFSGVECADAAAYYCQQGYTSSDINNAFGGGTEVVVK
notes: An HRP-labelled form served as detection antibody in the sandwich ELISA; also called HPV16.001; 单克隆抗体HPV 16 R001
no binding (tested: 10ng/mL): all assays above
